From patent US20250188136A1, “AV3 MUTANT POLYPEPTIDES FOR PEST CONTROL” (Vestaron Corporation, priority 2021, published 2025)
Entries after “also recorded” stand apart in the source; their conditions may differ. Ends that are not written are not given here.

Legend:
[1] = test system: Helicoverpa zea; assay: Lepidoptera injection assay, corn earworm (CEW); assay type: in vivo
Method: An injection assay was performed on Helicoverpa zea (corn earworm or “CEW”) and Spodoptera frugiperda (fall armyworm or “FAW”). Injections comprised a given Av3b mutant peptide combined with water to arrive at the planned dose. The Av3b mutants included Av3bM24; Av3bM165; Av3bM103; and Av3bM170. Av3b was used as a control.
Insects were reared on an artificial diet prepared from General Purpose Lepidoptera diet (Frontier Scientific, Newark, DE 19713, product No. F9772) according to the manufacturer's instructions. To perform the insect injection bioassay, 5 mL of hot diet was dispensed into the well of a rearing tray (Bio-Service Inc., Bio-RT-32), with 8 wells per injection treatment. The hot diet was then allowed to cool and solidify. Next, third instar larva were incubated on ice in order to immobilize them. Injections were prepared on a hand-microapplicator with injection solution (>100 μL) in 1-cc all-glass syringe having a 30 gauge straight needle. Air bubbles were removed from the syringe, and the syringe was set it up on the microapplicator. Injection volume was adjusted in the microapplicator at 2 μL.
To inject the larva, the insects were picked up and positioned close to the injection needle. The needle was allowed to penetrate the cuticle of the third pro-leg of the larva. The injection knob of the microapplicator was then rotated to inject a 2 μL solution into hemolymph from the third pro-leg. After injection the larva maintained on the needle for a few seconds to make sure the injected solution was absorbed. Then, the larva were gently removed from the needle and placed into the wells of prepared tray, along with 5 mL of solidified diet per well. Finally, the tray was sealed with vent covers.
Injected larva were incubated at 28° C. in an insect incubator, and scored at 24-hours post-injection based on their condition. Insect conditions were categorized as follows: alive (walking, eating, normal behavior); affected (showing toxic symptoms, such as tremors, writhing, unbalanced gait, or a combination thereof), knockdown (paralyzed albeit able to move with gentle poke); and dead (unmoving, discoloration, or a combination thereof).

[2] = Stability of purified peptide spiked into Av3b fermentation beer (rpHPLC); assay type: physicochemical
Method: To determine the stability of the new mutants, Av3bM19, Av3bM23, Av3bM24, Av3bM25, Av3bM27, and Av3bM28 were purified and incubated in Av3b fermentation beer. The mutants were purified by cation-exchange chromatography using a GE SP-Sephadex C-25 column. The column was first calibrated with 30 mM sodium citrate buffer at pH 3.0. Then, the culture supernatant containing the secreted mutant peptide was loaded into the column to let the mutant peptide bind to the resin. The column was then washed with 30 mM sodium citrate buffer, pH 3.0, followed by washing with 30 mM sodium acetate, pH 4.0. Next, the bound mutant peptide was eluted by 1 M or 2 M NaCl with 30 mM sodium acetate, pH 4.0. The elution was then concentrated and buffer-exchanged to 30 mM sodium acetate, pH 4.0 using a 1 kD cutoff spin concentrator.
After purification, each of the mutants, Av3bM19, Av3bM23, Av3bM24, Av3bM25, Av3bM27, and Av3bM28, were evaluated for stability by spiking them into Av3b strain fermentation beer at pH 6.5. As a negative control, Av3b was evaluated in a pH 4.0 buffer. As a positive control, purified Av3b was evaluated by spiking into the same Av3b fermentation beer at pH 6.5. All stability experiments were performed at room temperature. […] The amount of peptide remaining relative to the beginning was determined by normalizing the peak area at different time to the one at 0 hour for each treatment. The degradation trend is visualized by the bar graph of the relative remaining peptide amount trend.

[3] = DASbox small-scale fermentation, degradation by HPLC and LC/MS; assay type: physicochemical; details: DASbox fed batch fermentation runs
Method: DASbox® is a parallel bioreactor system (Eppendorf, 175 Freshwater Blvd, Enfield, CT 06082, USA). The DASbox system used here contains 8 fermentation vessels with 250 mL volume capacity, allowing 8 small scale fermentation runs simultaneously. The DASbox fermentation runs were performed according to the manufacturer's instructions, and using the fermentation conditions described herein.
The screening of the Av3b mutants was conducted using a fed batch process in aerobic bioreactor. Reactors were initially filled to ˜45% capacity with a rich culture media containing 5-20 g/L of a carbon source such as glucose, sorbitol, or lactose, 5-20 g/L phosphoric acid, 0.1-1.5 g/L Calcium sulfate, 5-15 g/L Potassium sulfate, 0.5-10 g/L Magnesium sulfate heptahydrate, 1-5 g/L potassium hydroxide, and 10-60 g/L of corn steep liquor. The temperature of the reactor was maintained between 25-35° C. for the duration of the fermentation. The pH was held constant between 4-5.5 with the addition of 15% ammonium hydroxide. Dissolved oxygen was held constant by sparging air between 0.5-1.5 volume/volume/min and by increasing agitation to maintain a set point of 10-30%.
Inoculation of the reactor was from an overnight seed culture containing 5-40 g/L of a carbon source such as glucose, sorbitol, or lactose, and 5-40 g/L of corn steep liquor. Inoculation percentage ranged from 5-20% of initial fill volume. Once inoculated, the reactor was fed with a 70% solution of the selected carbon source until the reactor was filled and/or desired supernatant peptide concentration was achieved, approximately 96-140 hours and 0.8-1.2 g/L, respectively.

KSCCPCYWGGCPWGQNCYPEGCDGPK (ends and bridges not checked; cysteine pairing not given here) [Av3bM24]
knock-down effects compared to Av3b ([1]; CEW and FAW injection, KD50): comparable knock-down effects to Av3b | KD50 CEW ([1]; third instar larva, 2 μL injection, scored at 24-hours post-injection): 428 ± 131 (N = 4) pmol/g | half-degradation time ([2]; Av3b production fermentation beer pH 6.5, room temperature (Example 11, FIG. 37)): 652 h | peptide remaining ([2]; fermentation beer pH 6.5, room temperature, 248 hours, HPLC peak area relative to starting amount): 84% | resistance to fermentation beer protease cleavage compared to Av3b ([2]; spiked into Av3b fermentation beer pH 6.5, room temperature): greater resistance to yeast fermentation beer protease cleavage; also recorded: improved resistance to fermentation beer cleavage; also recorded: resist the degradation in Av3b fermentation beer | degradation detected via HPLC and LC/MS [3]: degradation was detected
